B1: Speckle-type POZ protein (Homo sapiens), O43791 (parent)
chain: MSRVPSPPPPAEMSSGPVAESWCYTQIKVVKFSYMWTINNFSFCREEMGEVIKSSTFSSGANDKLKWCLRVNPKGLDEESKDYLSLYLLLVSCPKSEVRAKFKFSILNAKGEETKAMESQRAYRFVQGKDWGFKKFIRRDFLLDEANGLLPDDKLTLFCEVSVVQDSVNISGQNTMNMVKVPECRLADELGGLWENSRFTDCCLCVAGQEFQAHKAILAARSPVFSAMFEHEMEESKKNRVEINDVEPEVFKEMMCFIYTGKAPNLDKMADDLLAAADKYALERLKVMCEDALCSNLSVENAAEILILADLHSADQLKTQAVDFINYHASDVLETSGWKSMVVSHPHLVAEAYRSLASAQCPFLGPPRKRLKQS

Variants of: B1
Details: with b2mg_human B2M
In the case of MSRVPSPPPPAEMSSGPVAESWCYTQIKVVKFSYMWTINNFSFCREEMGEVIKSSTFSSGANDKLKWCLRVNPKGLDEESKDYLSLYLLLVSCPKSEVRAKFKFSILNAKGEETKAMESQRAYRFVQGKDWGVKKFIRRDFLLDEANGLLPDDKLTLFCEVSVVQDSVNISGQNTMNMVKVPECRLADELGGLWENSRFTDCCLCVAGQEFQAHKAILAARSPVFSAMFEHEMEESKKNRVEINDVEPEVFKEMMCFIYTGKAPNLDKMADDLLAAADKYALERLKVMCEDALCSNLSVENAAEILILADLHSADQLKTQAVDFINYHASDVLETSGWKSMVVSHPHLVAEAYRSLASAQCPFLGPPRKRLKQS [F133V], the “effect of a mutation on the interaction” value is reported as “with no effect”.

Variants of: B1
Details: with bap1_human BAP1, Q92560
With MSRVPSPPPPAEMSSGPVAESWCYTQIKVVKFSYMWTINNFSFCREEMGEVIKSSTFSSGANDKLKWCLRVNPKGLDEESKDYLSLYLLLVSCPKSEVRAKFKFSILNAKGEETKAMESQRAYRFVQGKDWGVKKFIRRDFLLDEANGLLPDDKLTLFCEVSVVQDSVNISGQNTMNMVKVPECRLADELGGLWENSRFTDCCLCVAGQEFQAHKAILAARSPVFSAMFEHEMEESKKNRVEINDVEPEVFKEMMCFIYTGKAPNLDKMADDLLAAADKYALERLKVMCEDALCSNLSVENAAEILILADLHSADQLKTQAVDFINYHASDVLETSGWKSMVVSHPHLVAEAYRSLASAQCPFLGPPRKRLKQS [F133V] the “effect of a mutation on the interaction” value was “with no effect”.

Variants of: B1
Details: with bcor_human BCOR
With MSRVPSPPPPAEMSSGPVAESWCYTQIKVVKFSYMWTINNFSFCREEMGEVIKSSTFSSGANDKLKWCLRVNPKGLDEESKDYLSLYLLLVSCPKSEVRAKFKFSILNAKGEETKAMESQRAYRFVQGKDWGVKKFIRRDFLLDEANGLLPDDKLTLFCEVSVVQDSVNISGQNTMNMVKVPECRLADELGGLWENSRFTDCCLCVAGQEFQAHKAILAARSPVFSAMFEHEMEESKKNRVEINDVEPEVFKEMMCFIYTGKAPNLDKMADDLLAAADKYALERLKVMCEDALCSNLSVENAAEILILADLHSADQLKTQAVDFINYHASDVLETSGWKSMVVSHPHLVAEAYRSLASAQCPFLGPPRKRLKQS [F133V] the “effect of a mutation on the interaction” value was “with no effect”.

Variants of: B1
Details: with birc2_human BIRC2, Q13490
With MSRVPSPPPPAEMSSGPVAESWCYTQIKVVKFSYMWTINNFSFCREEMGEVIKSSTFSSGANDKLKWCLRVNPKGLDEESKDYLSLYLLLVSCPKSEVRAKFKFSILNAKGEETKAMESQRAYRFVQGKDWGVKKFIRRDFLLDEANGLLPDDKLTLFCEVSVVQDSVNISGQNTMNMVKVPECRLADELGGLWENSRFTDCCLCVAGQEFQAHKAILAARSPVFSAMFEHEMEESKKNRVEINDVEPEVFKEMMCFIYTGKAPNLDKMADDLLAAADKYALERLKVMCEDALCSNLSVENAAEILILADLHSADQLKTQAVDFINYHASDVLETSGWKSMVVSHPHLVAEAYRSLASAQCPFLGPPRKRLKQS [F133V] the “effect of a mutation on the interaction” value was “with no effect”.

Variants of: B1
Details: with brd4_human BRD4, O60885
With MSRVPSPPPPAEMSSGPVAESWCYTQIKVVKFSYMWTINNFSFCREEMGEVIKSSTFSSGANDKLKWCLRVNPKGLDEESKDYLSLYLLLVSCPKSEVRAKFKFSILNAKGEETKAMESQRAYRFVQGKDWGVKKFIRRDFLLDEANGLLPDDKLTLFCEVSVVQDSVNISGQNTMNMVKVPECRLADELGGLWENSRFTDCCLCVAGQEFQAHKAILAARSPVFSAMFEHEMEESKKNRVEINDVEPEVFKEMMCFIYTGKAPNLDKMADDLLAAADKYALERLKVMCEDALCSNLSVENAAEILILADLHSADQLKTQAVDFINYHASDVLETSGWKSMVVSHPHLVAEAYRSLASAQCPFLGPPRKRLKQS [F133V] the “effect of a mutation on the interaction” value was “with no effect”.

Variants of: B1
Details: with baba2_human BABAM2, Q9NXR7
For MSRVPSPPPPAEMSSGPVAESWCYTQIKVVKFSYMWTINNFSFCREEMGEVIKSSTFSSGANDKLKWCLRVNPKGLDEESKDYLSLYLLLVSCPKSEVRAKFKFSILNAKGEETKAMESQRAYRFVQGKDWGVKKFIRRDFLLDEANGLLPDDKLTLFCEVSVVQDSVNISGQNTMNMVKVPECRLADELGGLWENSRFTDCCLCVAGQEFQAHKAILAARSPVFSAMFEHEMEESKKNRVEINDVEPEVFKEMMCFIYTGKAPNLDKMADDLLAAADKYALERLKVMCEDALCSNLSVENAAEILILADLHSADQLKTQAVDFINYHASDVLETSGWKSMVVSHPHLVAEAYRSLASAQCPFLGPPRKRLKQS [F133V], the “effect of a mutation on the interaction” value was “with no effect”.

Variants of: B1
Details: with btg1_human BTG1, P62324
In the case of MSRVPSPPPPAEMSSGPVAESWCYTQIKVVKFSYMWTINNFSFCREEMGEVIKSSTFSSGANDKLKWCLRVNPKGLDEESKDYLSLYLLLVSCPKSEVRAKFKFSILNAKGEETKAMESQRAYRFVQGKDWGVKKFIRRDFLLDEANGLLPDDKLTLFCEVSVVQDSVNISGQNTMNMVKVPECRLADELGGLWENSRFTDCCLCVAGQEFQAHKAILAARSPVFSAMFEHEMEESKKNRVEINDVEPEVFKEMMCFIYTGKAPNLDKMADDLLAAADKYALERLKVMCEDALCSNLSVENAAEILILADLHSADQLKTQAVDFINYHASDVLETSGWKSMVVSHPHLVAEAYRSLASAQCPFLGPPRKRLKQS [F133V], the “effect of a mutation on the interaction” value is reported as “with no effect”.

Variants of: B1
Details: with btk_human BTK
With MSRVPSPPPPAEMSSGPVAESWCYTQIKVVKFSYMWTINNFSFCREEMGEVIKSSTFSSGANDKLKWCLRVNPKGLDEESKDYLSLYLLLVSCPKSEVRAKFKFSILNAKGEETKAMESQRAYRFVQGKDWGVKKFIRRDFLLDEANGLLPDDKLTLFCEVSVVQDSVNISGQNTMNMVKVPECRLADELGGLWENSRFTDCCLCVAGQEFQAHKAILAARSPVFSAMFEHEMEESKKNRVEINDVEPEVFKEMMCFIYTGKAPNLDKMADDLLAAADKYALERLKVMCEDALCSNLSVENAAEILILADLHSADQLKTQAVDFINYHASDVLETSGWKSMVVSHPHLVAEAYRSLASAQCPFLGPPRKRLKQS [F133V] the “effect of a mutation on the interaction” value was “with no effect”.

Variants of: B1
Details: with ccnd1_human CCND1, P24385
With MSRVPSPPPPAEMSSGPVAESWCYTQIKVVKFSYMWTINNFSFCREEMGEVIKSSTFSSGANDKLKWCLRVNPKGLDEESKDYLSLYLLLVSCPKSEVRAKFKFSILNAKGEETKAMESQRAYRFVQGKDWGVKKFIRRDFLLDEANGLLPDDKLTLFCEVSVVQDSVNISGQNTMNMVKVPECRLADELGGLWENSRFTDCCLCVAGQEFQAHKAILAARSPVFSAMFEHEMEESKKNRVEINDVEPEVFKEMMCFIYTGKAPNLDKMADDLLAAADKYALERLKVMCEDALCSNLSVENAAEILILADLHSADQLKTQAVDFINYHASDVLETSGWKSMVVSHPHLVAEAYRSLASAQCPFLGPPRKRLKQS [F133V] the “effect of a mutation on the interaction” value was “with no effect”.

Variants of: B1
Details: with ccnd2_human CCND2, P30279
For MSRVPSPPPPAEMSSGPVAESWCYTQIKVVKFSYMWTINNFSFCREEMGEVIKSSTFSSGANDKLKWCLRVNPKGLDEESKDYLSLYLLLVSCPKSEVRAKFKFSILNAKGEETKAMESQRAYRFVQGKDWGVKKFIRRDFLLDEANGLLPDDKLTLFCEVSVVQDSVNISGQNTMNMVKVPECRLADELGGLWENSRFTDCCLCVAGQEFQAHKAILAARSPVFSAMFEHEMEESKKNRVEINDVEPEVFKEMMCFIYTGKAPNLDKMADDLLAAADKYALERLKVMCEDALCSNLSVENAAEILILADLHSADQLKTQAVDFINYHASDVLETSGWKSMVVSHPHLVAEAYRSLASAQCPFLGPPRKRLKQS [F133V], the “effect of a mutation on the interaction” value was “with no effect”.

Variants of: B1
Details: with ccnd3_human CCND3, P30281
With MSRVPSPPPPAEMSSGPVAESWCYTQIKVVKFSYMWTINNFSFCREEMGEVIKSSTFSSGANDKLKWCLRVNPKGLDEESKDYLSLYLLLVSCPKSEVRAKFKFSILNAKGEETKAMESQRAYRFVQGKDWGVKKFIRRDFLLDEANGLLPDDKLTLFCEVSVVQDSVNISGQNTMNMVKVPECRLADELGGLWENSRFTDCCLCVAGQEFQAHKAILAARSPVFSAMFEHEMEESKKNRVEINDVEPEVFKEMMCFIYTGKAPNLDKMADDLLAAADKYALERLKVMCEDALCSNLSVENAAEILILADLHSADQLKTQAVDFINYHASDVLETSGWKSMVVSHPHLVAEAYRSLASAQCPFLGPPRKRLKQS [F133V] the “effect of a mutation on the interaction” value was “with no effect”.

Variants of: B1
Details: with cd44_human CD44, P16070
In the case of MSRVPSPPPPAEMSSGPVAESWCYTQIKVVKFSYMWTINNFSFCREEMGEVIKSSTFSSGANDKLKWCLRVNPKGLDEESKDYLSLYLLLVSCPKSEVRAKFKFSILNAKGEETKAMESQRAYRFVQGKDWGVKKFIRRDFLLDEANGLLPDDKLTLFCEVSVVQDSVNISGQNTMNMVKVPECRLADELGGLWENSRFTDCCLCVAGQEFQAHKAILAARSPVFSAMFEHEMEESKKNRVEINDVEPEVFKEMMCFIYTGKAPNLDKMADDLLAAADKYALERLKVMCEDALCSNLSVENAAEILILADLHSADQLKTQAVDFINYHASDVLETSGWKSMVVSHPHLVAEAYRSLASAQCPFLGPPRKRLKQS [F133V], the “effect of a mutation on the interaction” value is reported as “with no effect”.

Variants of: B1
Details: with cd79b_human CD79B
With MSRVPSPPPPAEMSSGPVAESWCYTQIKVVKFSYMWTINNFSFCREEMGEVIKSSTFSSGANDKLKWCLRVNPKGLDEESKDYLSLYLLLVSCPKSEVRAKFKFSILNAKGEETKAMESQRAYRFVQGKDWGVKKFIRRDFLLDEANGLLPDDKLTLFCEVSVVQDSVNISGQNTMNMVKVPECRLADELGGLWENSRFTDCCLCVAGQEFQAHKAILAARSPVFSAMFEHEMEESKKNRVEINDVEPEVFKEMMCFIYTGKAPNLDKMADDLLAAADKYALERLKVMCEDALCSNLSVENAAEILILADLHSADQLKTQAVDFINYHASDVLETSGWKSMVVSHPHLVAEAYRSLASAQCPFLGPPRKRLKQS [F133V] the “effect of a mutation on the interaction” value was “with no effect”.

Variants of: B1
Details: with cdc73_human CDC73, Q6P1J9
In the case of MSRVPSPPPPAEMSSGPVAESWCYTQIKVVKFSYMWTINNFSFCREEMGEVIKSSTFSSGANDKLKWCLRVNPKGLDEESKDYLSLYLLLVSCPKSEVRAKFKFSILNAKGEETKAMESQRAYRFVQGKDWGVKKFIRRDFLLDEANGLLPDDKLTLFCEVSVVQDSVNISGQNTMNMVKVPECRLADELGGLWENSRFTDCCLCVAGQEFQAHKAILAARSPVFSAMFEHEMEESKKNRVEINDVEPEVFKEMMCFIYTGKAPNLDKMADDLLAAADKYALERLKVMCEDALCSNLSVENAAEILILADLHSADQLKTQAVDFINYHASDVLETSGWKSMVVSHPHLVAEAYRSLASAQCPFLGPPRKRLKQS [F133V], the “effect of a mutation on the interaction” value is reported as “with no effect”.

Variants of: B1
Details: with cdk4_human CDK4, P11802
In the case of MSRVPSPPPPAEMSSGPVAESWCYTQIKVVKFSYMWTINNFSFCREEMGEVIKSSTFSSGANDKLKWCLRVNPKGLDEESKDYLSLYLLLVSCPKSEVRAKFKFSILNAKGEETKAMESQRAYRFVQGKDWGVKKFIRRDFLLDEANGLLPDDKLTLFCEVSVVQDSVNISGQNTMNMVKVPECRLADELGGLWENSRFTDCCLCVAGQEFQAHKAILAARSPVFSAMFEHEMEESKKNRVEINDVEPEVFKEMMCFIYTGKAPNLDKMADDLLAAADKYALERLKVMCEDALCSNLSVENAAEILILADLHSADQLKTQAVDFINYHASDVLETSGWKSMVVSHPHLVAEAYRSLASAQCPFLGPPRKRLKQS [F133V], the “effect of a mutation on the interaction” value is reported as “with no effect”.
